Test system: Escherichia coli TOP10
Experiment: shrunken log2 fold change of peptide-encoding DNA abundance (4.5 h post-induction vs induction); higher = less antimicrobial activity (less host growth inhibition)
Settings: time post-induction: 4.5 h; library: site-saturation at positions 5, 18, 19, 20
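Note: peptides expressed intracellularly from a pBAD plasmid library in pooled LB shake-flask culture, induced with 0.3% L-arabinose, DNA abundance read by NGS, three biological replicates, DESeq2 with apeglm shrinkage.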

## RRIRARPPRLPRPRPRPWKFPRP
  shrunken log2 fold change: -0.00178

## RRIRKRPPRLPRPRPRPTDCPRP
  shrunken log2 fold change: -0.0167

## RRIRDRPPRLPRPRPRPEQEPRP
  shrunken log2 fold change: -0.0197

## RRIRLRPPRLPRPRPRPHLLPRP
  shrunken log2 fold change: -0.0156

## RRIRVRPPRLPRPRPRPDQQPRP
  shrunken log2 fold change: 0.021

## RRIRKRPPRLPRPRPRPWFYPRP
  shrunken log2 fold change: -0.0799

## RRIRQRPPRLPRPRPRPPFDPRP
  shrunken log2 fold change: 0.283

## RRIRHRPPRLPRPRPRPTQRPRP
  shrunken log2 fold change: 0.462

## RRIRTRPPRLPRPRPRPVKKPRP
  shrunken log2 fold change: 0.0316

## RRIRGRPPRLPRPRPRPEKKPRP
  shrunken log2 fold change: 0.102

## RRIRMRPPRLPRPRPRPEAIPRP
  shrunken log2 fold change: 2.54

## RRIRARPPRLPRPRPRPPKCPRP
  shrunken log2 fold change: 0.274

## RRIRHRPPRLPRPRPRPVQNPRP
  shrunken log2 fold change: 0.171

## RRIRLRPPRLPRPRPRPSHSPRP
  shrunken log2 fold change: -0.775

## RRIRDRPPRLPRPRPRPTQIPRP
  shrunken log2 fold change: 0.114

## RRIRFRPPRLPRPRPRPPWWPRP
  shrunken log2 fold change: 0.651

## RRIRYRPPRLPRPRPRPRGMPRP
  shrunken log2 fold change: -0.019

## RRIRHRPPRLPRPRPRPNGAPRP
  shrunken log2 fold change: -0.18

## RRIRGRPPRLPRPRPRPGCAPRP
  shrunken log2 fold change: 1.33

## RRIRPRPPRLPRPRPRPHDWPRP
  shrunken log2 fold change: -0.0184

## RRIRWRPPRLPRPRPRPPLTPRP
  shrunken log2 fold change: 0.432

## RRIRTRPPRLPRPRPRPNIMPRP
  shrunken log2 fold change: -0.526

## RRIRVRPPRLPRPRPRPMLRPRP
  shrunken log2 fold change: -0.102

## RRIRRRPPRLPRPRPRPDRFPRP
  shrunken log2 fold change: 0.394

## RRIRGRPPRLPRPRPRPFEGPRP
  shrunken log2 fold change: 0.0595

## RRIRRRPPRLPRPRPRPSSGPRP
  shrunken log2 fold change: 0.0144

## RRIRNRPPRLPRPRPRPYVMPRP
  shrunken log2 fold change: -1.01

## RRIRLRPPRLPRPRPRPTNLPRP
  shrunken log2 fold change: -0.27

## RRIRMRPPRLPRPRPRPPKIPRP
  shrunken log2 fold change: 0.45

## RRIRCRPPRLPRPRPRPMIMPRP
  shrunken log2 fold change: -0.854

## RRIRWRPPRLPRPRPRPHVEPRP
  shrunken log2 fold change: -0.042

## RRIRNRPPRLPRPRPRPCMVPRP
  shrunken log2 fold change: -0.69

## RRIRVRPPRLPRPRPRPGVAPRP
  shrunken log2 fold change: 0.377

## RRIRERPPRLPRPRPRPEYYPRP
  shrunken log2 fold change: -0.00813

## RRIRHRPPRLPRPRPRPSPDPRP
  shrunken log2 fold change: -0.293

## RRIRIRPPRLPRPRPRPMIYPRP
  shrunken log2 fold change: -0.205

## RRIRYRPPRLPRPRPRPFTPPRP
  shrunken log2 fold change: -0.889

## RRIRYRPPRLPRPRPRPGGFPRP
  shrunken log2 fold change: -0.169

## RRIRIRPPRLPRPRPRPRDCPRP
  shrunken log2 fold change: -0.296

## RRIRNRPPRLPRPRPRPEGPPRP
  shrunken log2 fold change: 0.026

## RRIRYRPPRLPRPRPRPNMIPRP
  shrunken log2 fold change: -1.34

## RRIRHRPPRLPRPRPRPPAYPRP
  shrunken log2 fold change: 0.181

## RRIRCRPPRLPRPRPRPEHPPRP
  shrunken log2 fold change: -0.131

## RRIRYRPPRLPRPRPRPVVDPRP
  shrunken log2 fold change: -0.0233

## RRIRCRPPRLPRPRPRPFVSPRP
  shrunken log2 fold change: -0.265

## RRIRPRPPRLPRPRPRPQMGPRP
  shrunken log2 fold change: -0.0457

## RRIRYRPPRLPRPRPRPCAPPRP
  shrunken log2 fold change: -0.329

## RRIRMRPPRLPRPRPRPDWKPRP
  shrunken log2 fold change: 0.0125

## RRIRFRPPRLPRPRPRPCGSPRP
  shrunken log2 fold change: 0.06

## RRIRTRPPRLPRPRPRPRRFPRP
  shrunken log2 fold change: -0.115

## RRIRYRPPRLPRPRPRPDSGPRP
  shrunken log2 fold change: -0.0811

## RRIRERPPRLPRPRPRPPNGPRP
  shrunken log2 fold change: 0.203

## RRIRTRPPRLPRPRPRPCQMPRP
  shrunken log2 fold change: -0.267

## RRIRVRPPRLPRPRPRPQRRPRP
  shrunken log2 fold change: 0.0241

## RRIRERPPRLPRPRPRPSKKPRP
  shrunken log2 fold change: -0.645

## RRIRMRPPRLPRPRPRPEFYPRP
  shrunken log2 fold change: -0.056

## RRIRNRPPRLPRPRPRPLGNPRP
  shrunken log2 fold change: -0.248

## RRIRRRPPRLPRPRPRPFDLPRP
  shrunken log2 fold change: 0.0765

## RRIRFRPPRLPRPRPRPDDSPRP
  shrunken log2 fold change: -0.154

## RRIRSRPPRLPRPRPRPLAQPRP
  shrunken log2 fold change: 0.261

## RRIRKRPPRLPRPRPRPVWNPRP
  shrunken log2 fold change: -0.106

## RRIRERPPRLPRPRPRPMLTPRP
  shrunken log2 fold change: 0.151

## RRIRKRPPRLPRPRPRPADLPRP
  shrunken log2 fold change: 0.056

## RRIRARPPRLPRPRPRPFTQPRP
  shrunken log2 fold change: -0.0692

## RRIRHRPPRLPRPRPRPLYKPRP
  shrunken log2 fold change: -0.272

## RRIRDRPPRLPRPRPRPYTTPRP
  shrunken log2 fold change: -0.556

## RRIRVRPPRLPRPRPRPGAVPRP
  shrunken log2 fold change: 0.481

## RRIRIRPPRLPRPRPRPTASPRP
  shrunken log2 fold change: 0.132

## RRIRVRPPRLPRPRPRPPLKPRP
  shrunken log2 fold change: 0.343

## RRIRRRPPRLPRPRPRPTCLPRP
  shrunken log2 fold change: 0.099

## RRIRERPPRLPRPRPRPWDEPRP
  shrunken log2 fold change: 0.0271

## RRIRQRPPRLPRPRPRPADKPRP
  shrunken log2 fold change: -0.137

## RRIRERPPRLPRPRPRPIGFPRP
  shrunken log2 fold change: -0.134

## RRIRYRPPRLPRPRPRPQDNPRP
  shrunken log2 fold change: -0.024

## RRIRDRPPRLPRPRPRPDIDPRP
  shrunken log2 fold change: -0.012

## RRIRIRPPRLPRPRPRPCIRPRP
  shrunken log2 fold change: -0.0379

## RRIRIRPPRLPRPRPRPSMRPRP
  shrunken log2 fold change: -0.000106

## RRIRVRPPRLPRPRPRPKHAPRP
  shrunken log2 fold change: 0.133

## RRIRIRPPRLPRPRPRPRDMPRP
  shrunken log2 fold change: -0.902

## RRIRMRPPRLPRPRPRPENRPRP
  shrunken log2 fold change: 0.247

## RRIRNRPPRLPRPRPRPLTYPRP
  shrunken log2 fold change: -0.979

## RRIRVRPPRLPRPRPRPNQIPRP
  shrunken log2 fold change: -0.1

## RRIRDRPPRLPRPRPRPTPFPRP
  shrunken log2 fold change: -0.13

## RRIRLRPPRLPRPRPRPPYQPRP
  shrunken log2 fold change: -0.0294

## RRIRVRPPRLPRPRPRPCYEPRP
  shrunken log2 fold change: -0.246

## RRIRGRPPRLPRPRPRPVKMPRP
  shrunken log2 fold change: 0.127

## RRIRIRPPRLPRPRPRPNLCPRP
  shrunken log2 fold change: -0.0543

## RRIRQRPPRLPRPRPRPNRSPRP
  shrunken log2 fold change: -0.0178

## RRIRWRPPRLPRPRPRPKFFPRP
  shrunken log2 fold change: 0.00459

## RRIRRRPPRLPRPRPRPIFCPRP
  shrunken log2 fold change: 0.0473

## RRIRKRPPRLPRPRPRPDRRPRP
  shrunken log2 fold change: 0.18

## RRIRQRPPRLPRPRPRPGMQPRP
  shrunken log2 fold change: 0.00486

## RRIRFRPPRLPRPRPRPWNSPRP
  shrunken log2 fold change: -0.976

## RRIRPRPPRLPRPRPRPKHVPRP
  shrunken log2 fold change: -0.137

## RRIRMRPPRLPRPRPRPMFAPRP
  shrunken log2 fold change: 0.304

## RRIRFRPPRLPRPRPRPRTEPRP
  shrunken log2 fold change: 0.202

## RRIRCRPPRLPRPRPRPADQPRP
  shrunken log2 fold change: -0.0916

## RRIRIRPPRLPRPRPRPWGMPRP
  shrunken log2 fold change: 0.0727

## RRIRARPPRLPRPRPRPRMAPRP
  shrunken log2 fold change: 0.479

## RRIRFRPPRLPRPRPRPSANPRP
  shrunken log2 fold change: -0.395

## RRIRIRPPRLPRPRPRPEHRPRP
  shrunken log2 fold change: -0.051

## RRIRRRPPRLPRPRPRPRDNPRP
  shrunken log2 fold change: 0.15

## RRIRKRPPRLPRPRPRPNEDPRP
  shrunken log2 fold change: -0.00122

## RRIRTRPPRLPRPRPRPTCVPRP
  shrunken log2 fold change: -0.308

## RRIRFRPPRLPRPRPRPHMAPRP
  shrunken log2 fold change: -0.429

## RRIRQRPPRLPRPRPRPRHNPRP
  shrunken log2 fold change: -0.0654

## RRIRGRPPRLPRPRPRPADAPRP
  shrunken log2 fold change: 1

## RRIRMRPPRLPRPRPRPMSLPRP
  shrunken log2 fold change: -0.207

## RRIRGRPPRLPRPRPRPSMAPRP
  shrunken log2 fold change: 0.749

## RRIRHRPPRLPRPRPRPVCIPRP
  shrunken log2 fold change: -1.22

## RRIRARPPRLPRPRPRPPCEPRP
  shrunken log2 fold change: 0.716

## RRIRDRPPRLPRPRPRPYWEPRP
  shrunken log2 fold change: -0.0419

## RRIRPRPPRLPRPRPRPNLWPRP
  shrunken log2 fold change: -0.0151

## RRIRNRPPRLPRPRPRPNWGPRP
  shrunken log2 fold change: -0.0231

## RRIRLRPPRLPRPRPRPSQEPRP
  shrunken log2 fold change: -0.0518

## RRIRRRPPRLPRPRPRPKIQPRP
  shrunken log2 fold change: 0.0197

## RRIRFRPPRLPRPRPRPKILPRP
  shrunken log2 fold change: 0.205

## RRIRRRPPRLPRPRPRPKTGPRP
  shrunken log2 fold change: 0.1

## RRIRIRPPRLPRPRPRPMYIPRP
  shrunken log2 fold change: -0.0364

## RRIRKRPPRLPRPRPRPYFLPRP
  shrunken log2 fold change: -0.278

## RRIRGRPPRLPRPRPRPDMLPRP
  shrunken log2 fold change: 0.526

## RRIRGRPPRLPRPRPRPNIMPRP
  shrunken log2 fold change: 0.0649

## RRIRNRPPRLPRPRPRPMVEPRP
  shrunken log2 fold change: -0.481

## RRIRQRPPRLPRPRPRPCYCPRP
  shrunken log2 fold change: -0.338

## RRIRHRPPRLPRPRPRPEAHPRP
  shrunken log2 fold change: -0.00101

## RRIRSRPPRLPRPRPRPIHPPRP
  shrunken log2 fold change: -0.0819

## RRIRARPPRLPRPRPRPHPNPRP
  shrunken log2 fold change: 0.21

## RRIRARPPRLPRPRPRPHGQPRP
  shrunken log2 fold change: 0.0639

## RRIRGRPPRLPRPRPRPKPDPRP
  shrunken log2 fold change: 1.11

## RRIRLRPPRLPRPRPRPNYRPRP
  shrunken log2 fold change: -0.571

## RRIRRRPPRLPRPRPRPKKNPRP
  shrunken log2 fold change: 0.496

## RRIRDRPPRLPRPRPRPKSIPRP
  shrunken log2 fold change: 0.114

## RRIRCRPPRLPRPRPRPLYRPRP
  shrunken log2 fold change: -1.14

## RRIRKRPPRLPRPRPRPDSFPRP
  shrunken log2 fold change: -0.115

## RRIRYRPPRLPRPRPRPFVEPRP
  shrunken log2 fold change: -1.17

## RRIRYRPPRLPRPRPRPWRSPRP
  shrunken log2 fold change: 0.175

## RRIRIRPPRLPRPRPRPKYKPRP
  shrunken log2 fold change: -0.775

## RRIRARPPRLPRPRPRPMHYPRP
  shrunken log2 fold change: -0.0399

## RRIRFRPPRLPRPRPRPWLNPRP
  shrunken log2 fold change: -0.189

## RRIRFRPPRLPRPRPRPIVKPRP
  shrunken log2 fold change: -0.395

## RRIRERPPRLPRPRPRPRMRPRP
  shrunken log2 fold change: 0.506

## RRIRERPPRLPRPRPRPSNAPRP
  shrunken log2 fold change: -0.086

## RRIRPRPPRLPRPRPRPQYDPRP
  shrunken log2 fold change: -0.638

## RRIRGRPPRLPRPRPRPTVAPRP
  shrunken log2 fold change: 1.99

## RRIRWRPPRLPRPRPRPRARPRP
  shrunken log2 fold change: 0.773

## RRIRDRPPRLPRPRPRPGSMPRP
  shrunken log2 fold change: -0.403

## RRIRKRPPRLPRPRPRPDLFPRP
  shrunken log2 fold change: 0.529

## RRIRPRPPRLPRPRPRPVIRPRP
  shrunken log2 fold change: -0.074

## RRIRFRPPRLPRPRPRPWRFPRP
  shrunken log2 fold change: 0.22

## RRIRTRPPRLPRPRPRPSARPRP
  shrunken log2 fold change: 0.0995
